From the DeepSol protein solubility set

Test: soluble on expression in E. coli; label from the status in PepcDB or PDB records

Sequence | soluble on expression in E. coli
MRGSHHHHHHTDPALRAASTFTSDTLPADHKAAIRQMKHALRAQLGDVQQIFNQLSDDIATRVAEINALKAQGDAVWPVLSYADIKAGHVTAEQREQIKRRGCAVIKGHFPREQALGWDQSMLDYLDRNRFDEVYKGPGDNFFGTLSASRPEIYPIYWSQAQMQARQSEEMANAQSFLNRLWTFESDGKQWFNPDVSVIYPDRIRRRPPGTTSKGLGAHTDSGALERWLLPAYQRVFANVFNGNLAQYDPWHAAHRTEVEEYTVDNTTKCSVFRTFQGWTALSDMLPGQGLLHVVPIPEAMAYVLLRPLLDDVPEDELCGVAPGRVLPVSEQWHPLLIEALTSIPKLEAGDSVWWHCDVIHSVAPVENQQGWGNVMYIPAAPMCEKNLAYAHKVKAALEKGASPGDFPREDYETNWEGRFTLADLNIHGKRALGMDVGLCGR | soluble
MRHHTIHPQLEQVFSAPYLRQLQKVTFQKGNYIGTQGQDITELTYILSGRVKIVRSLSNGKEHILQMPQQPQLLGDVELMTNQLAGSSVIALEEVQAAQLPLNNKEALLKDPIFLYHIGRNLAMALHRQGITASTNASYFVKERLATHILNIEEQDIFQLSPSILSSSFGTSYRHVQRVIKQFIDQGIIEKKAFKTYRILQRDSLETLAFID | not soluble
MRIEVVNVSHIFHRGTPLEKKALENVSLVINEGECLLVAGNTGSGKSTLLQIVAGLIEPTSGDVLYDGERKKGYEIRRNIGIAFQYPEDQFFAERVFDEVAFAVKNFYPDRDPVPLVKKAMEFVGLDFDSFKDRVPFFLSGGEKRRVAIASVIVHEPDILILDEPLVGLDREGKTDLLRIVEKWKTLGKTVILISHDIETVINHVDRVVVLEKGKKVFDGTRMEFLEKYDPRFFTSKMLVMRRLVLKGEDPFSMSDDELLERVCNS | soluble
MRIGELSKETGVSERSLRHYEEKGLLPSKRLANGYRDFDESAIEKVELIQMYLQIGLNLEETARMLRCLEIEPHLYDNPCSSILTLYEDKLNEVTKQITLLSNIQANLQKHVSLLKQAKEKE | not soluble
MRIKKKNTRGNARNFITRSQAVRKLQVSLADFRRLCIFKGIYPREPRNKKKANKGSTAPTTFYYAKDIQYLMHEPVLAKFREHKTFARKLTRALGRGEVSSAKRLEENRDSYTLDHIIKERYPSFPDAIRDIDDALNMLFLFSNLPSTNQVSSKIINDAQKICNQWLAYVAKERLVRKVFVSIKGVYYQANIKGEEVRWLVPFKFPENIPSDVDFRIMLTFLEFYSTLLHFVLYKLYTDSGLIYPPKLDLKKDKIISGLSSYILESRQEDSLLKLDPTEIEEDVKVESLDASTLKSALNADEANTDETEKEEEQEKKQEKEQEKEQNEETELDTFEDNNKNKGDILIQPSKYDSPVASLFSAFVFYVSREVPIDILEFLILSCGGNVISEAAMDQIENKKDIDMSKVTHQIVDRPVLKNKVAGRTYIQPQWIFDCINKGELVPANKYLPGEALPPHLSPWGDAIGYDPTAPVEEGEEEESESESESEDQVEEEDQEVVAGEEDDDDDEELQAQKELELEAQGIKYSETSEADKDVNKSKNKKRKVDEEEEEKKLKMIMMSNKQKKLYKKMKYSNAKKEEQAENLKKKKKQIAKQKAKLNKLDSKK | soluble
MRITVLILSTLLVTILNGLPIVPVVEDSISPEEVPEPSPEIEENTVPPPRVISPRVDVSVDVNEDGVLDIDEIRYAAFVHHGLSASVVEDLFKQVDTNRDNVLDAREFDAIRMLVLEKAENAALRYLQNVDTDRDGLLSLQEAQIYLLREYGIGYHDVARLWKLVPADLSDRMNSTLFSKLRRRVRGMTIRLARQIMKNADLNGDGHISVDEAQAIAFEQEGIGAGDVASMVGSVDENMDGELNAPEFADFERIIRARAIENSKKAMRVVDADNSGTLTLDEAKRVAFEHYGFDEATLAPFFGQADENEDGQLDNVEFAGFRSVIRARSVRDAMDKMKRIDTNGDGLVSNAEATDSTKKEDDMDSEETLALFNIADQNKSGKLDKVELADFNRLVRLSSIKFATDHFKEFDLDGNDAVTFDEIALLIEQKYGIPRSMIKTFFDRIDVDGSGDLMPAEIVDFRHLIRNHVSQQRQEKVYFLTL | not soluble
MRIVEVYSHLNGLEYIQVHLPHIWEEIQEIIVSIDAEACRTKESKEKTKQGQILYSPVALNEAFKEKLEAKGWKESRTNYYVTADPKLIRETLSLEPEEQKKVIEAAGKEALKSYNQTDFVKDRVAIEVQFGKYSFVAYDLFVKHMAFYVSDKIDVGVEILPMKELSKEMSSGISYYEGELYNVIRQGRGVPAVPLVLIGIAP | soluble
MRKAAALSLLVLVILSTTLAGCNFGKGSNEEDSKGTNLKLPCSIVSTISGEDVLYYEIEGDSLKKLDLDLKGHMEVYSEELGLAVYREFADKGTNLIITNGVKEHKISVEGNIEELIISPKGTKLLYRYNSGDKIGYKVLDLQNFKEFDFNENLAISGENVKFVNEDQLILYGVDLEKRQSGLYIYNIKDGSYTLEKQIVKAFIDYIDLVEDQVVLYTQSSIDGKKNCYIYNLDSKKESVISNEVGEIESLCKIGNVVYFIGTKGEGLRSLYSIDITNNKLDRLVYDFPKNISEKSKLIVVGDNIYFLGFNDSKEKNALYRYNLKDKSIKLIDSNKGQYIIIKMAGDPLEHHHHHH | not soluble
MRKERRMIKLAIFDMDGTLTDEPSSWEYVHRRLHTDNHMNFRLYRNGFISYEEFFRSDVLAWLRMHPRLKKDDIAGILRDIKLRDGSSEVVNGLKERGLITAVVSGGISWLCDILNEYMQIDYNLSNVIATDEGGFVQPWGYIRVIPERKNIAVKSLQSMLHISKDETISIGDSMENGMIHINSSKAYIIGGKGRHGEIPLGNNIRNLLSYI | not soluble
MRKKISIIGAGFVGSTTAHWLAAKELGDIVLLDIVEGVPQGKALDLYEASPIEGFDVRVTGTNNYADTANSDVIVVTSGAPRKPGMSREDLIKVNADITRACISQAAPLSPNAVIIMVNNPLDAMTYLAAEVSGFPKERVIGQAGVLDAARYRTFIAMEAGVSVKDVQAMLMGGHGDEMVPLPRFSTISGIPVSEFIAPDRLAQIVERTRKGGGEIVNLLKTGSAYYAPAAATAQMVEAVLKDKKRVMPVAAYLTGQYGLNDIYFGVPVILGAGGVEKILELPLNEEEMALLNASAKAVRATLDTLKSL | soluble
MRKNISENNGKRPGSVKSRFLVSAFAVFLVAYSQTGRSSEEVLEQYKSLFAQQQKEFEKQRQIIIEQGKEIEKLKSRLDSLITTQPTDRSPASNVAGKDGQRPPQVSSPSTPKTVVAGPVGKKNDQVQTRTVPGNLPAGPVGQAPPKQDEKPRPPEMPRLSDAVGGVLTRKGKIVVEPALEYAFTDSNRIFLDAFTFLPAIAIGLIDVRQVDQHSLMASIGARYGVTDRLEVEARVPYRARFDEQRSRPVSIGAGIDETFNASGNGLGDIEFAARYQLNSGAGGWPILVGNMRATVPTGKGPFDIKYAQAQGVPGAVFPTEVPTGSGFFSFEPSVTALYATDPAVFFANLAYNYNMGTTEKALDGSGDKFKVDPGYAVGMTFGMGFGINERSSFNIGYGHRHIFNTKINNRTLKGSQLDIGQLLLGYAFKYSQQTTLNFSIAIGTTDDAQDVRLSFRVPMTFLEHHHHHH | soluble
MRKPTYHQINPLIRLKETELLSEQQFQQLLEAETVEDVRNMLKSTVYQPYLTETFEEKFDYHSSEALGSLYRWLYEMAPEPAVVTLYTMRFTFHNLKILTKAERTGKDFDYLYLEDGRYSLNTVKSAIHTKNSSELEPALLEVIRDVFAYLEEGGLPQAIDILYDRAFLQQQRKLADELGYEELTKEVIAFIDLTNLSTMARGIVQHQNSNFLSTVLSSAGSITKKELLTYAEKSLVEFTAFVRTTNYGQLLEKIINKETNELNLLAFEKLKDDYLTSMYENGRTVAFGPLPLLAFLNAKEVEWKNLRLILVGKHSGFSNEKIRERMRKVNGV | not soluble
MRKRLLGDEHPDVAFSLNNLATVLAATNHPEEALSHRIEASNINDQIIRNIFAFSSESDRLSFLDKIRNNFDLFLSLVCNHLANSNRAKLAALDFVLKRKALTASALAAQNQAFYNGRYPQLQEKFSQLRDLSNQIIHLTFAVPETDDLATYQDNIRQLQSRHNHLQKQLAAQVPEIQLSEQVFDCQAIAAALPHNSILVEFVRFDVFDFQAVSANGETQWHPARYLAFILTAGKPNAVQMIDLGVADTIDRLIQAFRLQASDYTLPTLAWGKAPKLRVKSYNPTPAIELSQALLEPIRGLVKDCRHLIIAPDGNLNLVPFQVLPIDATSSRLLMDEYTISYLGVGREILRSKFQPSTGSISAPLIIADPDFDLSGTGDWENNTRLDVRSLQLSNQFTETGLLRAPGTRFLGESVAKKLPDAKLYLGAEALETRLTNSNCPKIMLIATHGLFQSDSQAQPVTKRRNLLSMERQRTTKVENPMLRSGLALAGANTWLAGGTLPLAAGKGFVFAQDIANLDLWANELTVLSACDTARGDIKIGEGVFGLRRAFAVAGTKTLVMSLWSVPDKVTALLMERFFDNLQSGMSRSEALDSAQNYIRNITVKELRASALGLEVLKELLAVKELSANSRIDCQEDDTPLEHPFYWGAWICQGNTNPLVNLEHHHHHH | not soluble
MRKYTFKTQRPKIVVIGGGTGLPVVLNGLRKQAVDITAVVTVADDGGSSGIIRNYVNVVPPGDIRNVMVALSSWPDLYKDIFQYRFQGDDQFFAGHAIGNLIIAALTEMKSGVFDAVQELSNMMQVDGHVYPAANEALTLHGKFSDGTELVGEAEITAAHKSLERVWVTDKNGKEPQAVQPVIDAIMAADQIVLGPGSLFTSILPNLTIGNIGRAVCESDAEVVYICNIMTQKGETDNFSDADHVRVLNRHLGQNFINTVLVNTEKVPEDYMDFHKFNEVSKQVSHDFRGLREQNCRVISSNFLKLRDNGAFHDGDQVVAELMNLVGHSDVFRLEHHHHHH | soluble
MRLAFWLYEGTALHGVSRVTNSMKGVHTVYHAPQGDDYITATYTMLERTPEFPKLSISVVRGQDLARGTSRLPGTVEQVDKHYKPELIVVAPSCSTALLQEDLGQMARASGVDQSKIMVYAVNPFRVAENEAAEGLFTELVRRFAAEQPKTEKPSVNLLGFTSLGFHLRSNLTSLRRMLKTLGIEVNVVAPWGAGIDDLKKLPAAWVNIAPFREIGCQAAGYLKEKFGMPSITEAPLGVNATLRWLRAIIAEVNKIGAEKGMAPMAMPELRDFSLDGQSAPSSVPWFARTADMESFSNKRAFVFGDATQVVGVTKFLKDELGMKIIGAGTYLPKQADWVREQLEGYLPGELMVTDKFQEVSAFIEEEMPELVCGTQMERHSCRKLDVPCMVISAPTHIENHLLGYYPFFGFDGADVMADRVYTSAKLGLEKHLIDFFGDAGLEYEAEEPEAFTEPTMSGNGTVASVSSAEAPSEAAVVTATATGELSWTAEAEKMLGKVPFFVRKKVRKNTDNYAREIGEPVVTADVFRKAKEHLGGLEHHHHHH | not soluble
MRLIVVSGQSGAGKSVALRVLEDLGYYCVDNLPVSLLTAFIQSVQGSQQNVAVSIDIRNLPKEPSLVQDVLDQLKQNNDVSMLFLDASKETLLKRYSETRRIHPLSLSQSKPSLAQAIELEKQLLGPLKEQADLLLDSSNQSLHELSETVRMRIEGRERKDLVMVFQSFGFKYGLPTDADYVFDVRFLPNPHWEPDLRPLTGLDAPIKSFLEGHSEVMELKQQIQKFFEYWLPMLEKNNRSYLTIAIGCTGGKHRSVYLTQQLGEYFAQLGHQVQLRHTSLEKQQS | not soluble
MRLRLLSLPFILSLCAPLLPLNTLAAERIVTIGGDVTEIAYALGAGDEIVARDSTSQQPQAAQKLPDVGYMRTLNAEGILAMKPTMLLVSELAQPSLVLTQIASSGVNVVTVPGQTTPESVAMKINAVATALHQTEKGQKLIEDYQQRLAAVNKTPLPVKVLFVMSHGGLTPMAAGQNTAADAMIRAAGGSNAMQGFSRYRPLSQEGVIASAPDLLLITTDGVKALGSSENIWKLPGMALTPAGKHKRLLVVDDMALLGFGLETPQVLAQLREKMEQMQ | not soluble
MRLSFLTLQRRNAVGDALRHKSALRRILKTGRRASGTACDAERRTIVEKLPHDSLEHHHHHH | not soluble
